The target of test [1] is T1, recombinant biotin tagged IL-7 Receptor-alpha (IL-7Rα) (Acrobiosystems #IL-7-H82F8) (UniProt P16871 21-236, biotin tag (site not stated)).
T1 construct: Bought reagent; also called IL-7Ra; α receptor
T1 sequence (looked up): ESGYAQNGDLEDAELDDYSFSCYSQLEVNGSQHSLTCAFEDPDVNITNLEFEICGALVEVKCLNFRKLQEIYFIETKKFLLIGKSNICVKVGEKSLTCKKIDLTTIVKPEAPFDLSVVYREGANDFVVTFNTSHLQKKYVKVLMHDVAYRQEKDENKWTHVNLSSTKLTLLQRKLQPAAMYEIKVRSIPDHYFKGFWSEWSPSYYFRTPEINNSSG
The test can be described thus: TR-FRET ligand-receptor binding assay, equilibrium fit. Here is the method:
(§1) IL-7 binding affinity was determined by measuring the TR-FRET fluorescence signal at a range of concentrations of recombinant IL-7 and IL-7 Receptor-alpha (IL-7Rα). In a buffer of PBS (pH 7.4)+0.05% BSA and 0.005% Tween-20, make 4×stocks of 160 nM TR-FRET acceptor linked α6-his IgG (Perkin Elmer #TRF0105-M), 80 nM TR-FRET donor linked streptavidin (Perkin Elmer #AD0062), recombinant 6-his tagged IL-7 wildtype or mutant variant (at concentrations up to 160 nM), and recombinant biotin tagged IL-7Rα (Acrobiosystems #IL-7-H82F8) (at concentrations up to 80 nM). For each sample to be tested, 5 μL of the 4× stock of a6-his IgG linked acceptor is mixed with 5 μL of a 4×working stock of IL-7. Separately, for each sample, 5 μL of 4×TR-FRET donor linked to streptavidin is mixed with 5 μL of the 4×working stock of recombinant IL-7Rα linked to biotin. Mixtures were incubated at room temperature for 30 minutes during which the 10 μL of a6-his linked acceptor/IL-7 mix was distributed into indicated wells in 384-well shallow black ProxiPlate (Perkin Elmer #6008260) and kept covered from light. After the 30 min incubation, 10 μL of streptavidin linked donor/IL-7Ra mixture was placed in designated wells containing designated concentration of IL-7 plus acceptor. Plates were immediately spun at 750 rpm for 30 sec and then immediately placed in PHERAstar plate reader (BMG Labtech) to read TR-FRET signal. Continuously over the next 30 minutes, fluorescence for donor signal (337 nm excitation/620 nm emission) and acceptor signal (337 nm excitation/655 nm emission) are read. The TR-FRET binding signal is determined by taking the ratio of acceptor signal over donor signal and multiplying by 10,000. Equilibrium is defined at the time point where the readings plateau before fluorescence activity begins to decay. Equilibrium values are then fit to a standard equilibrium equation assuming single site binding using the graphing program GraFit (Erithacus Software).

Test [2] has as its target T1, recombinant biotin tagged IL-7 …. Kind of test: binding analysis with two Kd parameters, in-house against commercially obtained IL-7 (taken to be TR-FRET on IL-7Rα). In general terms: TR-FRET usually uses a lanthanide donor and a delayed reading to cut background.
The target is the same in test [3]. Kind of test: TR-FRET, only the α receptor present (FIG. 4). Here is the method: as §1, with “Mixtures were incubated at room temperature for 30 minutes during which the 10 μL of a6-his linked acceptor/IL-7 mix was distributed into indicated wells in 384-well shallow black ProxiPlate (Perkin Elmer #6008260) and kept covered from light. After the 30 min incubation, 10 μL of streptavidin linked donor/IL-7Ra mixture was placed in designated wells containing designated concentration of IL-7 plus acceptor.” left out, “Equilibrium values are then fit to a standard equilibrium equation assuming single site binding using the graphing program GraFit (Erithacus Software).” left out

Test [4] concerns the target T2, IL-7Rα with 20 nM receptor γ (UniProt P16871 21-236; P31785 23-262, biotin tag (site not stated)).
T2 construct: Mixture of IL-7Rα and soluble receptor γ in the TR-FRET assay; The fit treated the receptor chains as one combined unit; also called IL-7Ra with the γ subunit; IL-7 with γ
T2 sequence (looked up) 1: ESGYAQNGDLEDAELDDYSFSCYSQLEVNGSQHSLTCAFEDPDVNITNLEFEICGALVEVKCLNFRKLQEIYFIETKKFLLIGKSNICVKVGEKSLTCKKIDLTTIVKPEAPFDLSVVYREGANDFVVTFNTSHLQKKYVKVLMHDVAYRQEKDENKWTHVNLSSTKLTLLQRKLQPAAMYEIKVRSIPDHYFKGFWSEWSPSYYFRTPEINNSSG
T2 sequence (looked up) 2: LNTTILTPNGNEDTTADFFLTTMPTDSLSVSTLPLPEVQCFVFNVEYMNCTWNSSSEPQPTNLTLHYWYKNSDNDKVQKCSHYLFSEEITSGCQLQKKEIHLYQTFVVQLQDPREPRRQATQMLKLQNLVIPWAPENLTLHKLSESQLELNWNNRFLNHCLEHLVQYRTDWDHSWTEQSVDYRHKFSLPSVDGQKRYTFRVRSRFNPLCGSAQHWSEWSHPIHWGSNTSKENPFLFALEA
The test can be described thus: TR-FRET, with 20 nM receptor γ against without (FIG. 5). Here is the method: as §1, with “Mixtures were incubated at room temperature for 30 minutes during which the 10 μL of a6-his linked acceptor/IL-7 mix was distributed into indicated wells in 384-well shallow black ProxiPlate (Perkin Elmer #6008260) and kept covered from light. After the 30 min incubation, 10 μL of streptavidin linked donor/IL-7Ra mixture was placed in designated wells containing designated concentration of IL-7 plus acceptor.” left out, “Equilibrium values are then fit to a standard equilibrium equation assuming single site binding using the graphing program GraFit (Erithacus Software).” left out

Test [5] deals with T1, recombinant biotin tagged IL-7 …. Kind of test: TR-FRET, His-tagged IL-7 and biotin IL-7Rα, equilibrium fit (FIG. 3). On the procedure: as §1, with “Mixtures were incubated at room temperature for 30 minutes during which the 10 μL of a6-his linked acceptor/IL-7 mix was distributed into indicated wells in 384-well shallow black ProxiPlate (Perkin Elmer #6008260) and kept covered from light. After the 30 min incubation, 10 μL of streptavidin linked donor/IL-7Ra mixture was placed in designated wells containing designated concentration of IL-7 plus acceptor.” left out, “Equilibrium values are then fit to a standard equilibrium equation assuming single site binding using the graphing program GraFit (Erithacus Software).” left out

For test [6] the target is unchanged. Kind of test: TR-FRET, earlier analyses.
Test [7] shares this target. The test can be described thus: TR-FRET, Expt. 2. On the procedure:
as §1, with “Mixtures were incubated at room temperature for 30 minutes during which the 10 μL of a6-his linked acceptor/IL-7 mix was distributed into indicated wells in 384-well shallow black ProxiPlate (Perkin Elmer #6008260) and kept covered from light. After the 30 min incubation, 10 μL of streptavidin linked donor/IL-7Ra mixture was placed in designated wells containing designated concentration of IL-7 plus acceptor.” left out, “Equilibrium values are then fit to a standard equilibrium equation assuming single site binding using the graphing program GraFit (Erithacus Software).” left out

The target of test [8] is T3, IL-7Rα with 20 nM receptor γ (UniProt P16871 21-236; P31785 23-262, biotin tag (site not stated)).
T3 chain 1: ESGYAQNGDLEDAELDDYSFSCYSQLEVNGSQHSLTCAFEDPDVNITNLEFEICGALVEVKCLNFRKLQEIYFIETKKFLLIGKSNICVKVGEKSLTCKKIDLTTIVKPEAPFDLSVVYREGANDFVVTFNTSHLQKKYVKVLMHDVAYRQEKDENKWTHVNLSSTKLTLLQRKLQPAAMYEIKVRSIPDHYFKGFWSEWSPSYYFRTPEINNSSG
T3 chain 2: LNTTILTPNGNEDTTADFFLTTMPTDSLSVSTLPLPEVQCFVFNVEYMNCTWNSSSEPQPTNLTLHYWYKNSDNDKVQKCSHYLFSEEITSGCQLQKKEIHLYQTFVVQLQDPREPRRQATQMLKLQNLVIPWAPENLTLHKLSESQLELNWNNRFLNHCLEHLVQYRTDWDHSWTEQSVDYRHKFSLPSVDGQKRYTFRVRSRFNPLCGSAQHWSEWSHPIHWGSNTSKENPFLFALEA
Kind of test: TR-FRET; with gamma.

Test [9] addresses T1, recombinant biotin tagged IL-7 …. Kind of test: TR-FRET, Expt. 1. Here is the method: as §1, with “Mixtures were incubated at room temperature for 30 minutes during which the 10 μL of a6-his linked acceptor/IL-7 mix was distributed into indicated wells in 384-well shallow black ProxiPlate (Perkin Elmer #6008260) and kept covered from light. After the 30 min incubation, 10 μL of streptavidin linked donor/IL-7Ra mixture was placed in designated wells containing designated concentration of IL-7 plus acceptor.” left out, “Equilibrium values are then fit to a standard equilibrium equation assuming single site binding using the graphing program GraFit (Erithacus Software).” left out

For test [10] the target is unchanged. Kind of test: TR-FRET, without receptor γ (FIG. 5). Here is the method: as §1, with “Mixtures were incubated at room temperature for 30 minutes during which the 10 μL of a6-his linked acceptor/IL-7 mix was distributed into indicated wells in 384-well shallow black ProxiPlate (Perkin Elmer #6008260) and kept covered from light. After the 30 min incubation, 10 μL of streptavidin linked donor/IL-7Ra mixture was placed in designated wells containing designated concentration of IL-7 plus acceptor.” left out, “Equilibrium values are then fit to a standard equilibrium equation assuming single site binding using the graphing program GraFit (Erithacus Software).” left out

Test [11] shares this target. The test can be described thus: TR-FRET, previous analyses.

The results in this text go back to patent publication US20220251191A1 (ARCH ONCOLOGY, published 2022).

As usually defined, the Kd is the free concentration of one partner at which half of the binding sites on the other are occupied at equilibrium, for simple one-to-one binding.

B1: IL-7 WT (commercial-sourced) (ligand)
chain: MDCDIEGKDGKQYESVLMVSIDQLLDSMKEIGSNCLNNEFNFFKRHICDANKEGMFLFRAARKLRQFLKMNSTGDFDLHLLKVSEGTTILLNCTGQVKGRKPAALGEAQPTKSLEENKSLKEQKKLNDLCFLKRLLQEIKTCWNKILMGTKEH
notes: also called commercially obtained IL-7; commercial IL-7
Take B1: in test [1], the Kd amounted to 21.7 nM. Besides, the “fold higher Kd than in-house IL-7” value in test [2] was roughly 4 fold.

B2: IL-7 WT (in-house with His tag) (ligand)
chain: MDCDIEGKDGKQYESVLMVSIDQLLDSMKEIGSNCLNNEFNFFKRHICDANKEGMFLFRAARKLRQFLKMNSTGDFDLHLLKVSEGTTILLNCTGQVKGRKPAALGEAQPTKSLEENKSLKEQKKLNDLCFLKRLLQEIKTCWNKILMGTKEHENLYFQGHHHHHH
notes: also called IL-7 WT (in-house-His 6); in-house IL-7
With B2, the Kd was 20.2 nM in test [3]; 5.44 nM in test [5]; 6.6 nM in [6]; 20 nM in [7]; 2.75 nM in test [8]; 14 nM in test [9]. Moreover, the Kd in test [1] was determined as 17 nM; in test [10], 12.1 nM; in test [11], 6 nM. Further, the “fold increase in apparent affinity with receptor γ against without” value in test [4] stood at 5 fold.

B3: IL-7 S1 with C-terminal His-tag (ligand)
chain: MDCDIEGKDGIQYESVLMVSIDQLLDSMKEIGSNCLNNEFNFFKRHICDANKEGMFLFRAARKLRQFLKMNSTGDFDLHLLKVSEGTTILLNCTGQVKGRKPAALGEAQPTKSLEENKSLKEQKKLNDLCFLKRLLQEIKTCWNKILMGTKEHENLYFQGHHHHHH
notes: also called IL-7 mutant S1; S1 mutant
In the case of B3, the Kd in test [3] was 34.8 nM; in [7] it was 72 nM; in test [9], 37 nM; in test [1], 55 nM.
